Results as given in article PMC8894357 (2022).

Target: T1, Human β-catenin, GST tagged (human, UniProt P35222 1-781)
T1 chain: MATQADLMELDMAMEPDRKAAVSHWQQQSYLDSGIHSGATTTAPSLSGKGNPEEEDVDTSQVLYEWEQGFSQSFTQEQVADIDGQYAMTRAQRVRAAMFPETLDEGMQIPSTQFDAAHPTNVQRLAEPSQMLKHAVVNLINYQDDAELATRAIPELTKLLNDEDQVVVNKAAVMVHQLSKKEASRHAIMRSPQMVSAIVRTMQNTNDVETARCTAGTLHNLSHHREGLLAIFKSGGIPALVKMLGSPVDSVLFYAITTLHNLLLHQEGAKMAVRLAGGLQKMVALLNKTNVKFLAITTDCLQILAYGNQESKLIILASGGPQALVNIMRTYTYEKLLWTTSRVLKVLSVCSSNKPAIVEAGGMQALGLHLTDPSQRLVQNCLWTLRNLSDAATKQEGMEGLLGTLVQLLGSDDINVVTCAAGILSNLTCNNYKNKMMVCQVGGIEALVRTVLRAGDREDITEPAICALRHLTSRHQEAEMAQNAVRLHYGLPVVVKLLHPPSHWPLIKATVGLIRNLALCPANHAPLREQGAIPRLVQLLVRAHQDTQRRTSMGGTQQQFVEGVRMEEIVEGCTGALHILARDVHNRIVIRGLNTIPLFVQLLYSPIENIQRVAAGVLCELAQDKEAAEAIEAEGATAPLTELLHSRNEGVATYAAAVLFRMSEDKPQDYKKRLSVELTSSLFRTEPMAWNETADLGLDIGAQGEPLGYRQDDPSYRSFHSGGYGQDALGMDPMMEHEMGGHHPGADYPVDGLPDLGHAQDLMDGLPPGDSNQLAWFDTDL

B1: αE-catenin, monomeric fraction (mouse, full length, His(6x) tagged) (natural protein)
chain: MTAVHAGNINFKWDPKSLEIRTLAVERLLEPLVTQVTTLVNTNSKGPSNKKRGRSKKAHVLAASVEQATENFLEKGDKIAKESQFLKEELVVAVEDVRKQGDLMKSAAGEFADDPCSSVKRGNMVRAARALLSAVTRLLILADMADVYKLLVQLKVVEDGILKLRNAGNEQDLGIQYKALKPEVDKLNIMAAKRQQELKDVGNRDQMAAARGILQKNVPILYTASQACLQHPDVAAYKANRDLIYKQLQQAVTGISNAAQATASDDAAQHQGGSGGELAYALNNFDKQIIVDPLSFSEERFRPSLEERLESIISGAALMADSSCTRDDRRERIVAECNAVRQALQDLLSEYMGNAGRKERSDALNSAIDKMTKKTRDLRRQLRKAVMDHVSDSFLETNVPLLVLIEAAKNGNEKEVKEYAQVFREHANKLIEVANLACSISNNEEGVKLVRMSASQLEALCPQVINAALALAAKPQSKLAQENMDLFKEQWEKQVRVLTDAVDDITSIDDFLAVSENHILEDVNKCVIALQEKDVDGLDRTAGAIRGRAARVIHVVTSEMDNYEPGVYTEKVLEATKLLSNTVMPRFTEQVEAAVEALSSDPAQPMDENEFIDASRLVYDGIRDIRKAVLMIRTPEELDDSDFETEDFDVRSRTSVQTEDDQLIAGQSARAIMAQLPQEQKAKIAEQVASFQEEKSKLDAEVSKWDDSGNDIIVLAKQMCMIMMEMTDFTRGKGPLKNTSDVISAAKKIAEAGSRMDKLGRTIADHCPDSACKQDLLAYLQRIALYCHQLNICSKVKAEVQNLGGELVVSGVDSAMSLIQAAKNLMNAVVQTVKASYVASTKYQKSQGMASLNLPAVSWKMKAPEKKPLVKREKQDETQTKIKRASQKKHVNPVQALSEFKAMDSI
Kd: 35 nM
